In US20190225669A1 (ACCELERON PHARMA, published 2019):
Where two headings read alike, the source gives them in different places. Values belong to the binder of their own block, whether it stands above or below them.

Columns and labels:
[1] = target: T1, BMP9 (UniProt Q9UK05 320-429); experiment: Biacore SPR; kinetics indeterminate (transient)
T1 construct: also called GDF2
T1 sequence (looked up): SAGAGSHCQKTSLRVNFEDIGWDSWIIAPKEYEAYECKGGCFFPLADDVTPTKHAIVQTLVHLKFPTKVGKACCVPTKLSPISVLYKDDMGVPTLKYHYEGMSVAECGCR
Protocol: (§1) Ligands were injected and allowed to flow over the captured receptor protein.

[2] = target: T2, GDF8 (UniProt O14793 267-375); experiment: Biacore SPR
T2 construct: also called myostatin
T2 sequence (looked up): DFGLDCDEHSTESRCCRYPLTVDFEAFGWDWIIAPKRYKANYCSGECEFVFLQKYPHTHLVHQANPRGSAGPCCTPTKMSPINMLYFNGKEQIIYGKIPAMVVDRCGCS
Protocol: as §1

[3] = target: T3, activin B (UniProt P09529 293-407); experiment: Biacore SPR
T3 sequence (looked up): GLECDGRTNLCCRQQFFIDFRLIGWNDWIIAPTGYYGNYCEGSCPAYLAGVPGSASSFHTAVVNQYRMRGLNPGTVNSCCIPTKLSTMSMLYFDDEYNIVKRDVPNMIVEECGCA
Protocol: as §1

[4] = target: T4, BMP6 (UniProt P22004 382-513, limits assumed); experiment: Biacore SPR
T4 sequence (looked up): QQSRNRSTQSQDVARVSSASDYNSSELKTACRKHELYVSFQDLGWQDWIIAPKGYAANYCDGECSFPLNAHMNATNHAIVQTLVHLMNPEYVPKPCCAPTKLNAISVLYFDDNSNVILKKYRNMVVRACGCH
Protocol: as §1

[5] = target: T5, GDF3 (UniProt Q9NR23 251-364); experiment: Biacore SPR
T5 sequence (looked up): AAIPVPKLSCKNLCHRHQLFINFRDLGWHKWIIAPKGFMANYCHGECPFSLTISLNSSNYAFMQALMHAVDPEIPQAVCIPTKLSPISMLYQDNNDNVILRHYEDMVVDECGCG
Protocol: as §1

[6] = target: T6, BMP10 (UniProt O95393 317-424); experiment: Biacore SPR
T6 sequence (looked up): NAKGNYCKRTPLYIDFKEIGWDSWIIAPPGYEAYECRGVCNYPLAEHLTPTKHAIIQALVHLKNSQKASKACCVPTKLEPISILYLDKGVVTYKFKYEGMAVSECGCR
Protocol: as §1

[7] = target: T7, activin A (UniProt P08476 311-426); experiment: Biacore SPR
T7 sequence (looked up): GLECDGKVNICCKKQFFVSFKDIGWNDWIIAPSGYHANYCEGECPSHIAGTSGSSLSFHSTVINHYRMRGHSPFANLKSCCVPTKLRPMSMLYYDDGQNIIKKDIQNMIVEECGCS
Protocol: as §1

[8] = target: T8, GDF11 (UniProt O95390 299-407); experiment: Biacore SPR
T8 construct: also called BMP11
T8 sequence (looked up): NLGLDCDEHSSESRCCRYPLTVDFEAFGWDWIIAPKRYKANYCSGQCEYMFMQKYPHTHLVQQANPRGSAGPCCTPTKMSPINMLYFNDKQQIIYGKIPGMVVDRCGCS
Protocol: as §1

[9] = target: T9, activin AB (UniProt P08476 311-426; P09529 293-407); experiment: Biacore SPR
T9 sequence (looked up) 1: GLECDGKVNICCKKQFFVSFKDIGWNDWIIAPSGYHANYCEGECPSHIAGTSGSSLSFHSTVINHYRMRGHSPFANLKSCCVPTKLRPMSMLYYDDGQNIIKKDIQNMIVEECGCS
T9 sequence (looked up) 2: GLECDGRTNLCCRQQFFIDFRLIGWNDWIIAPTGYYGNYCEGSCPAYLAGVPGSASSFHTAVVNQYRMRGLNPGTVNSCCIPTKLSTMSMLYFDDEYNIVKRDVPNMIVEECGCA
Protocol: as §1

[10] = target: T10, BMP15 (UniProt O95972 268-392); experiment: Biacore SPR
T10 construct: also called GDF9b
T10 sequence (looked up): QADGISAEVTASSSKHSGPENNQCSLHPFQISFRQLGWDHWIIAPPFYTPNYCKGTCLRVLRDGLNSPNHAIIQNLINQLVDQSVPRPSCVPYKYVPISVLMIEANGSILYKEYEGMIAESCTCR
Protocol: as §1

[11] = target: T3, activin B; experiment: Biacore SPR; remark: listed apart in the source
Protocol: as §1

[12] = target: T6, BMP10; experiment: Biacore SPR; remark: listed apart in the source
Protocol: as §1

[13] = target: T7, activin A; experiment: Biacore SPR; remark: listed apart in the source
Protocol: as §1

[14] = target: T11, BMP7 (UniProt P18075 293-431); experiment: Biacore SPR
T11 sequence (looked up): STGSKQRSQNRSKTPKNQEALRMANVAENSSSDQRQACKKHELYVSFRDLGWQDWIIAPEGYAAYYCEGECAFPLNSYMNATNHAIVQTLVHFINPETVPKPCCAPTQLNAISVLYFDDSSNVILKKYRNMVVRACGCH
Protocol: (§2) A Biacore™-based binding assay was used to compare ligand binding selectivity of the BMPRII-Fc:ALK2-Fc heterodimeric complex described above with that of BMPRII-Fc and ALK2-Fc homodimeric complexes. […] Ligands were injected and allowed to flow over the captured receptor protein.

[15] = target: T10, BMP15; experiment: Biacore SPR; remark: listed apart in the source
Protocol: as §2

[16] = target: T3, activin B; experiment: Biacore SPR; remark: listed apart in the source
Protocol: as §2

[17] = target: T6, BMP10; experiment: Biacore SPR; remark: listed apart in the source
Protocol: as §2

[18] = target: T12, BMP5 (UniProt P22003 317-454, limits assumed); experiment: Biacore SPR
T12 sequence (looked up): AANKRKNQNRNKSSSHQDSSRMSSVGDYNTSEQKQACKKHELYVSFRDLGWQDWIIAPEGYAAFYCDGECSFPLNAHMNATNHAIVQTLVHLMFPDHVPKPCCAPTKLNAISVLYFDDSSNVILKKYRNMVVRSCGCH
Protocol: as §2

[19] = target: T1, BMP9; experiment: Biacore SPR
Protocol: as §2

Kd [1]: 3.4 nM
Kd [2]: 0.55 nM
koff [2]: 0.00021 s⁻¹
kon [2]: 390000 M⁻¹ s⁻¹
Kd [3]: 0.006 nM
koff [3]: 4e-05 s⁻¹
kon [3]: 7.1e+06 M⁻¹ s⁻¹
Kd [4]: 2.7 nM
koff [4]: 0.0055 s⁻¹
kon [4]: 2e+06 M⁻¹ s⁻¹
Kd [5]: 4.9 nM
koff [5]: 0.017 s⁻¹
kon [5]: 3.4e+06 M⁻¹ s⁻¹
Kd [6]: 0.074 nM
koff [6]: 0.0041 s⁻¹
kon [6]: 5.6e+07 M⁻¹ s⁻¹
Kd [7]: 0.012 nM
koff [7]: 0.00015 s⁻¹
kon [7]: 1.3e+07 M⁻¹ s⁻¹
Kd [8]: 0.003 nM
koff [8]: 0.00011 s⁻¹
kon [8]: 3.8e+07 M⁻¹ s⁻¹
B1: ActRIIB-Fc:ALK4-Fc heterodimer (Fc fusion)
chain 1: GRGEAETRECIYYNANWELERTNQSGLERCEGEQDKRLHCYASWRNSSGTIELVKKGCWLDDFNCYDRQECVATEENPQVYFCCCEGNFCNERFTHLPEAGGPEVTYEPPPTAPTGGGTHTCPPCPAPELLGGPSVFLFPPKPKDTLMISRTPEVTCVVVDVSHEDPEVKFNWYVDGVEVHNAKTKPREEQYNSTYRVVSVLTVLHQDWLNGKEYKCKVSNKALPAPIEKTISKAKGQPREPQVYTLPPSRKEMTKNQVSLTCLVKGFYPSDIAVEWESNGQPENNYKTTPPVLKSDGSFFLYSKLTVDKSRWQQGNVFSCSVMHEALHNHYTQKSLSLSPGK
chain 2: SGPRGVQALLCACTSCLQANYTCETDGACMVSIFNLDGMEHHVRTCIPKVELVPAGKPFYCLSSEDLRNTHCCYTDYCNRIDLRVPSGHLKEPEHPSMWGPVETGGGTHTCPPCPAPELLGGPSVFLFPPKPKDTLMISRTPEVTCVVVDVSHEDPEVKFNWYVDGVEVHNAKTKPREEQYNSTYRVVSVLTVLHQDWLNGKEYKCKVSNKALPAPIEKTISKAKGQPREPQVYTLPPSREEMTKNQVSLTCLVKGFYPSDIAVEWESNGQPENNYDTTPPVLDSDGSFFLYSDLTVDKSRWQQGNVFSCSVMHEALHNHYTQKSLSLSPG
notes: C-terminal Lys optional; also called ActRIIB-Fc:ALK4-Fc heterodimeric complex; ActRIIB-Fc:ALK4-Fc heteromeric complex

Kd [9]: 0.14 nM
koff [9]: 0.0005 s⁻¹
kon [9]: 3.6e+06 M⁻¹ s⁻¹
Kd [10]: 1.7 nM
koff [10]: 0.048 s⁻¹
kon [10]: 2.8e+07 M⁻¹ s⁻¹
Kd [11]: 1.7 nM
koff [11]: 0.0026 s⁻¹
kon [11]: 1.6e+06 M⁻¹ s⁻¹
Kd [12]: 2.2 nM
koff [12]: 0.0018 s⁻¹
kon [12]: 800000 M⁻¹ s⁻¹
Kd [13]: 1.1 nM
koff [13]: 0.0022 s⁻¹
kon [13]: 2e+06 M⁻¹ s⁻¹
Kd [1]: > 140 nM
B2: BMPRII-Fc:ALK4-Fc heterodimer (Fc fusion)
chain 1: SQNQERLCAFKDPYQQDLGIGESRISHENGTILCSKGSTCYGLWEKSKGDINLVKQGCWSHIGDPQECHYEECVVTTTPPSIQNGTYRFCCCSTDLCNVNFTENFPPPDTTPLSPPHSFNRDETGGGTHTCPPCPAPELLGGPSVFLFPPKPKDTLMISRTPEVTCVVVDVSHEDPEVKFNWYVDGVEVHNAKTKPREEQYNSTYRVVSVLTVLHQDWLNGKEYKCKVSNKALPAPIEKTISKAKGQPREPQVYTLPPSRKEMTKNQVSLTCLVKGFYPSDIAVEWESNGQPENNYKTTPPVLKSDGSFFLYSKLTVDKSRWQQGNVFSCSVMHEALHNHYTQKSLSLSPGK
chain 2: SGPRGVQALLCACTSCLQANYTCETDGACMVSIFNLDGMEHHVRTCIPKVELVPAGKPFYCLSSEDLRNTHCCYTDYCNRIDLRVPSGHLKEPEHPSMWGPVETGGGTHTCPPCPAPELLGGPSVFLFPPKPKDTLMISRTPEVTCVVVDVSHEDPEVKFNWYVDGVEVHNAKTKPREEQYNSTYRVVSVLTVLHQDWLNGKEYKCKVSNKALPAPIEKTISKAKGQPREPQVYTLPPSREEMTKNQVSLTCLVKGFYPSDIAVEWESNGQPENNYDTTPPVLDSDGSFFLYSDLTVDKSRWQQGNVFSCSVMHEALHNHYTQKSLSLSPG
notes: C-terminal Lys optional; also called BMPRII-Fc:ALK4-Fc heterodimeric complex

Kd [14]: 0.76 nM
koff [14]: 0.012 s⁻¹
kon [14]: 1.5e+07 M⁻¹ s⁻¹
Kd [15]: 1.1 nM
koff [15]: 0.011 s⁻¹
kon [15]: 9.6e+06 M⁻¹ s⁻¹
Kd [16]: 5.2 nM
koff [16]: 0.0031 s⁻¹
kon [16]: 590000 M⁻¹ s⁻¹
Kd [17]: 0.3 nM
koff [17]: 0.034 s⁻¹
kon [17]: 1.1e+08 M⁻¹ s⁻¹
Kd [18]: 2.8 nM
koff [18]: 0.005 s⁻¹
kon [18]: 1.8e+06 M⁻¹ s⁻¹
Kd [19]: 0.5 nM
koff [19]: 0.0051 s⁻¹
kon [19]: 1e+07 M⁻¹ s⁻¹
B3: BMPRII-Fc:ALK2-Fc heterodimer (Fc fusion)
chain 1: SQNQERLCAFKDPYQQDLGIGESRISHENGTILCSKGSTCYGLWEKSKGDINLVKQGCWSHIGDPQECHYEECVVTTTPPSIQNGTYRFCCCSTDLCNVNFTENFPPPDTTPLSPPHSFNRDETGGGTHTCPPCPAPELLGGPSVFLFPPKPKDTLMISRTPEVTCVVVDVSHEDPEVKFNWYVDGVEVHNAKTKPREEQYNSTYRVVSVLTVLHQDWLNGKEYKCKVSNKALPAPIEKTISKAKGQPREPQVYTLPPSRKEMTKNQVSLTCLVKGFYPSDIAVEWESNGQPENNYKTTPPVLKSDGSFFLYSKLTVDKSRWQQGNVFSCSVMHEALHNHYTQKSLSLSPGK
chain 2: MEDEKPKVNPKLYMCVCEGLSCGNEDHCEGQQCFSSLSINDGFHVYQKGCFQVYEQGKMTCKTPPSPGQAVECCQGDWCNRNITAQLPTKGKSFPGTQNFHLETGGGTHTCPPCPAPELLGGPSVFLFPPKPKDTLMISRTPEVTCVVVDVSHEDPEVKFNWYVDGVEVHNAKTKPREEQYNSTYRVVSVLTVLHQDWLNGKEYKCKVSNKALPAPIEKTISKAKGQPREPQVYTLPPSREEMTKNQVSLTCLVKGFYPSDIAVEWESNGQPENNYDTTPPVLDSDGSFFLYSDLTVDKSRWQQGNVFSCSVMHEALHNHYTQKSLSLSPG
notes: C-terminal Lys optional; also called BMPRII-Fc:ALK2-Fc heterodimeric complex
